Source: publication PMC10127185, “Low complexity domains of the nucleocapsid protein of SARS-CoV-2 form amyloid fibrils” (Nature Communications, 2023)

Tests used:
[1] = target: the molecule itself; assay: crystal structure; GQTVTK 68 mg/mL in water, hanging drop, 20 °C, 2.0 M (NH4)2SO4, 0.1 M sodium HEPES pH 7.5, 2% v/v PEG 400; 1.10 Å
[2] = target: the molecule itself; assay: crystal structure; AALALL form 1: batch, peptide in water, acetonitrile and TFA about 45:45:10; needle crystals; 1.12 Å
[3] = target: the molecule itself; assay: crystal structure; GSQASS 100 mg/mL in water, hanging drop, 20 °C, 1.0 M Na,K tartrate, 0.2 M Li2SO4, Tris pH 7.0; needle crystals; 1.30 Å

B1: NCAP steric zipper segment 243GQTVTK248 (peptide)
peptide: GQTVTK
notes: Nucleocapsid protein (NCAP) of SARS-CoV-2, residues 243-248, within the central LCD
binding result [1]: binds

B2: NCAP steric zipper segment 217AALALL222 (peptide)
peptide: AALALL
notes: Nucleocapsid protein (NCAP) of SARS-CoV-2, residues 217-222, within the central LCD; also called H-AALALL-OH
binding result [2]: binds

B3: NCAP steric zipper segment 179GSQASS184 (peptide)
peptide: GSQASS
notes: Nucleocapsid protein (NCAP) of SARS-CoV-2, residues 179-184, within the central LCD; non-phosphorylated peptide
binding result [3]: binds
